Laboratory results reported in patent US20040248785A1 (UNIVERSITY OF MARYLAND BALTIMORE, published 2004).

How the values were obtained:
[1] = molecular target: T1, low density lipoprotein receptor-related protein / alpha2-macroglobulin receptor (LRP), isolated from human … (human, UniProt Q07954 20-4544); test: competition assay: peptide 484-509 added with 125I-fVIII (1 nM) to LRP-coated wells; competitor of fVIII for LRP
T1 construct: mature; Native receptor coated on microtiter wells; also called purified LRP; immobilized LRP
T1 sequence (Q07954 20-4544, form in doubt): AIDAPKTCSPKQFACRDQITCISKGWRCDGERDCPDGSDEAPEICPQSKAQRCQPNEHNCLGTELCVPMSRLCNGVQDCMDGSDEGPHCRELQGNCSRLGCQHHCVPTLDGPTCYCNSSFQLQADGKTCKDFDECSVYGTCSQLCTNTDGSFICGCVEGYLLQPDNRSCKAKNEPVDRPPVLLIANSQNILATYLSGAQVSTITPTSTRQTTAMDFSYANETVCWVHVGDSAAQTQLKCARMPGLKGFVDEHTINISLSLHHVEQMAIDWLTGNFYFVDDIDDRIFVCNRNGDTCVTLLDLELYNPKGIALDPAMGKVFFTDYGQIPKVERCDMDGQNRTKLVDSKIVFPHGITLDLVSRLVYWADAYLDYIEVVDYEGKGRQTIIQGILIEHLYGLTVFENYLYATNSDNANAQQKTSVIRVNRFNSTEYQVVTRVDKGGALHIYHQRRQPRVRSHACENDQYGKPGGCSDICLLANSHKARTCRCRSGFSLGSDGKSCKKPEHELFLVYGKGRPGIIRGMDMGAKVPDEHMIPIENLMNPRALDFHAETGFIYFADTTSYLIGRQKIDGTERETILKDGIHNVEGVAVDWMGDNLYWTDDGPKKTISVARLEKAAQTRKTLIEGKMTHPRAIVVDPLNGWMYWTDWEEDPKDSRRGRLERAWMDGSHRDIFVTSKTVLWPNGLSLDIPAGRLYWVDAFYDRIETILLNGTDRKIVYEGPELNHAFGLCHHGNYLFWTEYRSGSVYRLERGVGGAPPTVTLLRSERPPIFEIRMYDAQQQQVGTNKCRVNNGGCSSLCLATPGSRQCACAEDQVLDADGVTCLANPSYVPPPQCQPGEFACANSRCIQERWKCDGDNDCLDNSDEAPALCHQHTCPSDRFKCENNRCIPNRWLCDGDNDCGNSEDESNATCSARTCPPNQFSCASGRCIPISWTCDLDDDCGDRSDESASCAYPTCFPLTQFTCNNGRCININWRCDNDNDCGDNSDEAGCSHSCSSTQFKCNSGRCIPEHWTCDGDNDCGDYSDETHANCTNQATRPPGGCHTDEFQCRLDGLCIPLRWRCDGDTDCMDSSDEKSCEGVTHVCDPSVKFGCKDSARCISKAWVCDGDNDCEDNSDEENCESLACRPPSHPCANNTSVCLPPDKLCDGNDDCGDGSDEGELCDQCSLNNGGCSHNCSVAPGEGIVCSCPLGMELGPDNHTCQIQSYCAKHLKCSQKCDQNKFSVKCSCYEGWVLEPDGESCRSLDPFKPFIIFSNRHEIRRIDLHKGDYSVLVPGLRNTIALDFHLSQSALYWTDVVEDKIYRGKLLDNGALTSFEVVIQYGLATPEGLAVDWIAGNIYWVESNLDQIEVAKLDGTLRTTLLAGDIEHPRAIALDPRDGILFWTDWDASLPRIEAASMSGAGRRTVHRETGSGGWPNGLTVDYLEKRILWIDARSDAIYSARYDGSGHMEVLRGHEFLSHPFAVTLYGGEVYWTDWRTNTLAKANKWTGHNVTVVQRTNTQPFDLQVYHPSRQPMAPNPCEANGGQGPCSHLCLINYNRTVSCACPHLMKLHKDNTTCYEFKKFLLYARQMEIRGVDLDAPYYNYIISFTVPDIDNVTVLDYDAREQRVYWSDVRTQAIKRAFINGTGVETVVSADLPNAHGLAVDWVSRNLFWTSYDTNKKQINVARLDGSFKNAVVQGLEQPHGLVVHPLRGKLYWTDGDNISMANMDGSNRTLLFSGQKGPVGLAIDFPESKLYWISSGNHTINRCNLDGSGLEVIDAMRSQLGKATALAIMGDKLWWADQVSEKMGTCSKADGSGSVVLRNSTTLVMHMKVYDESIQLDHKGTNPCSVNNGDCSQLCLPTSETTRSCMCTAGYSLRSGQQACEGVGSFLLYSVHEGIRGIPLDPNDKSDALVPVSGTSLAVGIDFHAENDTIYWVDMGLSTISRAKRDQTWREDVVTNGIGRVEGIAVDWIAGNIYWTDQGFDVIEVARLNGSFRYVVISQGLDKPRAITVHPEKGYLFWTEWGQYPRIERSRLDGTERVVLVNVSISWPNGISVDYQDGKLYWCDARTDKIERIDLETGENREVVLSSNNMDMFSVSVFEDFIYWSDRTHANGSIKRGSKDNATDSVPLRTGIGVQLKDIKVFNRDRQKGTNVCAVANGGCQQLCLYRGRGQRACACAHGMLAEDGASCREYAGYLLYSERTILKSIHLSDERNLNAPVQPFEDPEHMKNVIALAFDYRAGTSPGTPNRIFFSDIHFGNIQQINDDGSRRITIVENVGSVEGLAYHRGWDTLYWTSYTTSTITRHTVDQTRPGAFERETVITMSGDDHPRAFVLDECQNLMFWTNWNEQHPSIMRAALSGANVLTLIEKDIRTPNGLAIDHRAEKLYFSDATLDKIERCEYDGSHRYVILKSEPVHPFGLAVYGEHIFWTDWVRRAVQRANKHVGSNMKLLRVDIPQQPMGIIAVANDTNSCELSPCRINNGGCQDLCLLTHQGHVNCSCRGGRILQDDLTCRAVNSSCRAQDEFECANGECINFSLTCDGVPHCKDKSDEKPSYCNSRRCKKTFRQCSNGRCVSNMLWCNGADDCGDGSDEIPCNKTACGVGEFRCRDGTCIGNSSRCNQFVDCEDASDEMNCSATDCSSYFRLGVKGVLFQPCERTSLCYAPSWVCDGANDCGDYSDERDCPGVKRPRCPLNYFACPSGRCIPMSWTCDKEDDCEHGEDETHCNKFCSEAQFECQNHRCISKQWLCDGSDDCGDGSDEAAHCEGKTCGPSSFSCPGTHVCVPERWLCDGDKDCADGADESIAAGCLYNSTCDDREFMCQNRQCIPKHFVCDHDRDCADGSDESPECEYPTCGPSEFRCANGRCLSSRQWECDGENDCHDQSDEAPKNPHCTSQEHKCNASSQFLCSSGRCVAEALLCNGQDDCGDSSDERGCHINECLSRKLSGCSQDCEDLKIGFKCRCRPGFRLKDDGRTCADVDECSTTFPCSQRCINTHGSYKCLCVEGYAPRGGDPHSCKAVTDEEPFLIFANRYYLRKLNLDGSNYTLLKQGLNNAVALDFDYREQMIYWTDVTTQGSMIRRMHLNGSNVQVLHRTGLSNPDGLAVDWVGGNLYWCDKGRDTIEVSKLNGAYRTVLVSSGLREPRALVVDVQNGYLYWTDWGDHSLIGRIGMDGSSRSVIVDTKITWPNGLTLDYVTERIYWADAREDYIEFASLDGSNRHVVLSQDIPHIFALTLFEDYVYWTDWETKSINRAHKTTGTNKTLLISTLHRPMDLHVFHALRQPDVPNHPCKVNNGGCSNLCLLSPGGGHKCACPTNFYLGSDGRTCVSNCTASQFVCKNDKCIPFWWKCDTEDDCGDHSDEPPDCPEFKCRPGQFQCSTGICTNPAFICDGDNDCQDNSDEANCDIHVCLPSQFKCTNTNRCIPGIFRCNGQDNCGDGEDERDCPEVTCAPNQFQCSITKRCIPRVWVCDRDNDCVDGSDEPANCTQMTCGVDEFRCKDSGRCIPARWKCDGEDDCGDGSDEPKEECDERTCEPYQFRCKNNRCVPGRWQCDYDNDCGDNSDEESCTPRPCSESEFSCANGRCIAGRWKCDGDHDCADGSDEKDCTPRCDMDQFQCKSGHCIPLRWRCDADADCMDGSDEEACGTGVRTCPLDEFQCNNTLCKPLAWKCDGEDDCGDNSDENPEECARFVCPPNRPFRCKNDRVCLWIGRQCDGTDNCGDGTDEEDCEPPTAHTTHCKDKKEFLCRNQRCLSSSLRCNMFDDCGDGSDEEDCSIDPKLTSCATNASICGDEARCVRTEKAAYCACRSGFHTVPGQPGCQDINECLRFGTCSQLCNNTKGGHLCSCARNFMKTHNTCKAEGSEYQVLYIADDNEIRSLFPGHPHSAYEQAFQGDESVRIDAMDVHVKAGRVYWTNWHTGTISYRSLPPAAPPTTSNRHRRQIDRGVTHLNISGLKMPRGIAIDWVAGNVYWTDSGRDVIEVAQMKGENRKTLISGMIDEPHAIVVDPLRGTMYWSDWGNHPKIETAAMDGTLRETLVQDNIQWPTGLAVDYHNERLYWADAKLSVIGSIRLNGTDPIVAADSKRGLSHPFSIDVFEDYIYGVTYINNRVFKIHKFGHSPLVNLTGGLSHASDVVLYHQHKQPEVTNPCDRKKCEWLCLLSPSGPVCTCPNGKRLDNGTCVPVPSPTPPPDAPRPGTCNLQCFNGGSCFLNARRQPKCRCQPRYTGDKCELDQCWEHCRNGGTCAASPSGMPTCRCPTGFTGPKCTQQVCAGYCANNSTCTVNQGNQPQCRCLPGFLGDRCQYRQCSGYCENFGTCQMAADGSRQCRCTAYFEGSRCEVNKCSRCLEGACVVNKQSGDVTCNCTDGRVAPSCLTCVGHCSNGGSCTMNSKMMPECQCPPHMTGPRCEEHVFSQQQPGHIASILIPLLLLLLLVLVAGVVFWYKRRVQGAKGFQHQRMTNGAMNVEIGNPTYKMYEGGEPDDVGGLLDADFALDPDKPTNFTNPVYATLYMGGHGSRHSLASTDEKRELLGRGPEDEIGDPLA
Procedure: FIGS. 17A-17B. Effect of monoclonal antibodies and synthetic peptides on ¹²⁵fVIII binding to purified LRP. […] Binding of ¹²⁵I-fVIII in the presence antibodies or peptides is expressed as the percentage of its binding, when no competitor was added. The mean and standard deviation of the triplicate measurements are presented.
(§1) Homologous and heterologous ligand displacement assays were performed as previously described (Williams, S. E., et al., J. Biol. Chem. 267:9035-9040 (1992)). Microtiter wells were coated with purified LRP or BSA (3 μg/ml) in 50 mM Tris, 0.15 M NaCl, pH 8.0, for 16 h and then blocked with 3% BSA in TBS. Coated wells were incubated with ¹²⁵I-A2 or ¹²⁵I-fVIII in 20 mM Tris-buffered saline pH 7.4, containing 5 mM CaCl₂, 0.05% Tween-20 in the presence or absence of unlabeled competitors for 1 h at 37° C. The radioactivity bound to the wells was counted using a γ-counter (Pharmacia). Affinity constants were derived from homologous and heterologous displacement data using the computer program LIGAND (Munson, P T and Rodbard, D. Anal. Biochem. 107:220-239 (1980)).

[2] = molecular target: T1, low density lipoprotein …; test: heterologous displacement of 125I-fVIII (1 nM) from LRP-coated wells; HCh as competitor
Procedure: as §1
(§2) In order to localize fVIII region(s) involved in interaction with LRP, binding between ¹²⁵I-fVIII and immobilized LRP was competed by unlabeled fVIII fragments.

[3] = molecular target: LRP on mouse embryonic fibroblast (MEF) cells (mouse, UniProt Q91ZX7 20-4545); test: cell-based or functional assay
[4] = molecular target: T1, low density lipoprotein …; test: homologous displacement of 125I-A2 (5 nM) by unlabeled A2 (0-1750 nM) on immobilized LRP, program Ligand
[5] = molecular target: T1, low density lipoprotein …; test: heterologous displacement of 125I-fVIII (1 nM) from LRP-coated wells; isolated A2 domain as competitor
Procedure: as §1, §2

[6] = molecular target: T1, low density lipoprotein …; test: RAP as competitor of 125I-fVIII (1 nM) binding to LRP-coated wells, LIGAND fit
[7] = molecular target: T1, low density lipoprotein …; test: solid-phase heterologous ligand displacement: RAP competes with 125I-fVIII (1 nM) for LRP-coated wells, 1 h at 37 C
Procedure: FIGS. 15A-15B. Binding of ¹²⁵I-fVIII to purified LRP by ligand competition assay. ¹²⁵I-fVIII (1 nM) was incubated for 1 h at 37° C. in wells coated with LRP (•) or BSA (∘) in the presence of increasing concentrations of unlabeled competitors, fVIII (•, ∘) or vWf (Δ) (FIG. 15A) and RAP (•, ∘) (FIG. 15B). In the experiment (Δ), ¹²⁵I-fVIII was preincubated with vWf for 30 min at 37° C., prior to its addition to the wells. Following incubation, the wells were washed and ¹²⁵I-fVIII binding was determined. Binding of ¹²⁵I-fVIII in the presence of unlabeled fVIII, vWf, or RAP is expressed as the percentage of ¹²⁵fVIII binding, when no competitor was added. Each point represents the mean value of triplicates and the error bars display the standard deviation. The curves show a best fit of the data to a model describing heterologous ligand displacement from a single class of binding sites using the program LIGAND.
Homologous and heterologous ligand displacement assays were performed as previously described (Williams, S. E., et al., J. Biol. Chem. 267:9035-9040 (1992)). Microtiter wells were coated with purified LRP or BSA (3 μg/ml) in 50 mM Tris, 0.15 M NaCl, pH 8.0, for 16 h and then blocked with 3% BSA in TBS. […] The radioactivity bound to the wells was counted using a γ-counter (Pharmacia). […]

Binder: RPLYSRRLPKGVKHLKDFPILPGEIF [synthetic peptide of fVIII A2 domain residues 484-509]
- IC50 (read off the curve) [1]: ~1000 nM

B1: heavy chain (HCh) of factor VIII (other)
chain: ATRRYYLGAVELSWDYMQSDLGELPVDARFPPRVPKSFPFNTSVVYKKTLFVEFTDHLFNIAKPRPPWMGLLGPTIQAEVYDTVVITLKNMASHPVSLHAVGVSYWKASEGAEYDDQTSQREKEDDKVFPGGSHTYVWQVLKENGPMASDPLCLTYSYLSHVDLVKDLNSGLIGALLVCREGSLAKEKTQTLHKFILLFAVFDEGKSWHSETKNSLMQDRDAASARAWPKMHTVNGYVNRSLPGLIGCHRKSVYWHVIGMGTTPEVHSIFLEGHTFLVRNHRQASLEISPITFLTAQTLLMDLGQFLLFCHISSHQHDGMEAYVKVDSCPEEPQLRMKNNEEAEDYDDDLTDSEMDVVRFDDDNSPSFIQIRSVAKKHPKTWVHYIAAEEEDWDYAPLVLAPDDRSYKSQYLNNGPQRIGRKYKKVRFMAYTDETFKTREAIQHESGILGPLLYGEVGDTLLIIFKNQASRPYNIYPHGITDVRPLYSRRLPKGVKHLKDFPILPGEIFKYKWTVTVEDGPTKSDPRCLTRYYSSFVNMERDLASGLIGPLLICYKESVDQRGNQIMSDKRNVILFSVFDENRSWYLTENIQRFLPNPAGVQLEDPEFQASNIMHSINGYVFDSLQLSVCLHEVAYWYILSIGAQTDFLSVFFSGYTFKHKMVYEDTLTLFPFSGETVFMSMENPGLWILGCHNSDFRNRGMTALLKVSSCDKNTGDYYEDSYEDISAYLLSKNNAIEPRSFSQNSRHRSTRQKQFNATTIPENDIEKTDPWFAHRTPMPKIQNVSSSDLLMLLRQSPTPHGLSLSDLQEAKYETFSDDPSPGAIDSNNSLSEMTHFRPQLHHSGDMVFTPESGLQLRLNEKLGTTAATELKKLDFKVSSTSNNLISTIPSDNLAAGTDNTSSLGPPSMPVHYDSQLDTTLFGKKSSPLTESGGPLSLSEENNDSKLLESGLMNSQESSWGKNVSSTESGRLFKGKRAHGPALLTKDNALFKVSISLLKTNKTSNNSATNRKTHIDGPSLLIENSPSVWQNILESDTEFKKVTPLIHDRMLMDKNATALRLNHMSNKTTSSKNMEMVQQKKEGPIPPDAQNPDMSFFKMLFLPESARWIQRTHGKNSLNSGQGPSPKQLVSLGPEKSVEGQNFLSEKNKVVVGKGEFTKDVGLKEMVFPSSRNLFLTNLDNLHENNTHNQEKKIQEEIEKKETLIQENVVLPQIHTVTGTKNFMKNLFLLSTRQNVEGSYDGAYAPVLQDFRSLNDSTNRTKKHTAHFSKKGEEENLEGLGNQTKQIVEKYACTTRISPNTSQQNFVTQRSKRALKQFRLPLEETELEKRIIVDDTSTQWSKNMKHLTPSTLTQIDYNEKEKGAITQSPLSDCLTRSHSIPQANRSPLPIAKVSSFPSIRPIYLTRVLFQDNSSHLPAASYRKKDSGVQESSHFLQGAKKNNLSLAILTLEMTGDQREVGSLGTSATNSVTYKKVENTVLPKPDLPKTSGKVELLPKVHIYQKDLFPTETSNGSPGHLDLVEGSLLQGTEGAIKWNEANRPGKVPFLRVATESSAKTPSKLLDPLAWDNHYGTQIPKEEWKSQEKSPEKTAFKKKDTILSLNACESNHAIAAINEGQNKPEIEVTWAKQGRTERLCSQNPPVLKRHQR
notes: Prepared from plasma-derived fVIII
- Ki [2]: 120 nM

B2: A2 subunit (A2 domain) of factor VIII, isolated from thrombin-activated fVIII (other)
chain: SVAKKHPKTWVHYIAAEEEDWDYAPLVLAPDDRSYKSQYLNNGPQRIGRKYKKVRFMAYTDETFKTREAIQHESGILGPLLYGEVGDTLLIIFKNQASRPYNIYPHGITDVRPLYSRRLPKGVKHLKDFPILPGEIFKYKWTVTVEDGPTKSDPRCLTRYYSSFVNMERDLASGLIGPLLICYKESVDQRGNQIMSDKRNVILFSVFDENRSWYLTENIQRFLPNPAGVQLEDPEFQASNIMHSINGYVFDSLQLSVCLHEVAYWYILSIGAQTDFLSVFFSGYTFKHKMVYEDTLTLFPFSGETVFMSMENPGLWILGCHNSDFRNRGMTALLKVSSCDKNTGDYYEDSYEDISAYLLSKNNAIEPR
modifications: 125I-labelled where used as tracer
notes: Protein was made from plasma-derived fVIII
- inhibition of degradation of 125I-fVIII/vWf complex by MEF cells by a 1000-fold excess of A2, after 4 hours [3]: > 60%
- inhibition of internalization of 125I-fVIII/vWf complex by MEF cells by a 1000-fold excess of A2, after 4 hours [3]: > 70%
- Kd [4]: 130 nM
- Ki [5]: 132 nM

B3: 39 kDa receptor-associated protein (RAP), human, expressed in bacteria (ligand)
chain: YSREKNQPKPSPKRESGEEFRMEKLNQLWEKAQRLHLPPVRLAELHADLKIQERDELAWKKLKLDGLDEDGEKEARLIRNLNVILAKYGLDGKKDARQVTSNSLSGTQEDGLDDPRLEKLWHKAKTSGKFSGEELDKLWREFLHHKEKVHEYNVLLETLSRTEEIHENVISPSDLSDIKGSVLHSRHTELKEKLRSINQGLDRLRRVSHQGYSTEAEFEEPRVIDLWDLAQSANLTDKELEAFREELKHFEAKIEKHNHYQKQLEIAHEKLRHAESVGDGERVSRSREKHALLEGRTKELGYTVKKHLQDLSGRISRARHNEL
notes: also called alpha2 macroglobulin receptor-associated protein
- Ki [6]: 2.5 nM
- IC50 (read off the curve) [7]: ~2 nM
